Assay: soluble fraction after stress (log2 fold change); higher = more stays soluble; pooled small domains, quantitative proteomics
Details: stress: 50 degC
Method in brief: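 The measure of aggregation propensity here is the base-two logarithm of the fold change in the soluble amount of each protein after stress. A higher value means more of that protein stays in solution. Stress was applied at 50°C to pooled libraries of small protein domains, read out by high-throughput quantitative proteomics.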

| Sequence | soluble fraction (log2) |
| --- | --- |
| HMKTTSYAKLLRFLRTERDLSQITVAKQLGLSRASYLALEHGSRELSLSEAVKVTTLYGIRIDDLIVNH | -3.48 |
| HMSSKYLKIYNDIVGKIDSGIFEANTKLPSESQLMDEYNVSRYTVRKSLNLLEQNGYIEKSKGKGSFVLDM | -0.717 |
| HMKSLDDVISKFRPTGSENKIDFRKRVISEIHAQGFFKIKGSVNHVAKALGVTRYTVYNYLDKLND | -3.23 |
| HMTEPLTKREKEVLLLLPRGLTAKAMASELFLTEATIKSHLAAIFRKFKVVNRTQAIAIAVESKILT | -2.33 |
| HMQRVSDKVAAQLRVLVQEQQLKPGDRLPAERALAVQLGVSRTALREAIAQLASQGLLTARVGGGTYVAEP | -0.307 |
| HMEYREFEAMTIRAIATLPPTQGHVIMLSRFEGLDNKEIALRLNLSLQTVKNTLTQGLKELKNKMRKLP | -1.8 |
| HMPLTRSDVKRIQLWLMAHGYDIGSPDGVFGDKSNRAANAFLSQQGRSLETVTLGKLYDILEAN | -2.01 |
| HMSFVEVTVSELKNYVNSHARIKLKSGKEFKGFILDANEEGVIIKVQLRGGTAESTISYNRIDRAAVF | -1.69 |
| HMAIGTDPETGISVVADGTDFIWTRSGATSTIFLRLDSENSYILNVKQGDFEVIDYELGEGQENAINIDQS | -0.0311 |
| HMSGEITVPNLIGVEAIQAKTLLIQAGFLIKEFYDLDSTQPAGVVIRQAPEAGTTQTIGKSVTITINKQ | -0.00644 |
| HMTPLFNQGEVLKGFVLQTGTNNRVLLQIGTAKVLADAQTPLKAGEQLTLRVEATGPRTVLQILG | 0.553 |
| HMDAINITTYKGQITLTGTKTGTLVGIYNTAGMLVKSMMSKGEKLYFDNLPSGVYIIKVGEEEPRKVQVI | -0.165 |
| HMDTKLFNYGVGKHAYISWNEGGKRTAYIGFGNDGADVLTINNVKQGGSLGIYKDKITLNSQTVLTD | -0.0296 |
| HMELAALKILNSPIGKIAIGTSENGLVKLDILTSGQTRAEFSDLPKAHKLALDAADQLAAYF | 0.0579 |
| HMINFKVKNVQDVGSRLDKFLVTNIPEFSRSKIQKHIKNGKVMVNGLLKKTGYKLEINDEINILNN | -0.276 |
| HMNLMQIHVARPPNQLGVFSQEEVAAGLQSGRFLPTDQAWRDGMSAWTPLSQWAEFSSVVAAV | 0.083 |
| HMGVIDTLSGPQKAAAILVAIGRPSASRLLKHFNAEDLRKLAGHARTLEPISPLDFEHLVKQFEDSFAEG | -0.798 |
| HMDKMVAVPNVRGIEASEAEATLIAQGLFVEVEKSDSEDANVAYGEVYAQTPKAGNRVEEGTTITIKVRTE | 0.0555 |
| HMTSVAGIERFLASGAIKGMGAATAKLIVEHFGADTLNMLDMYPERLTEIKGIGPKKATAIIEGYRELS | -0.751 |
| HMRRPRGVFNLVPRGFKRFGFITPDGGGEDMFAHLENVRAGHVVEDRNAVEYGIGRGPDGRDQAVDIVPVP | 0.049 |
| HMDDMVLEIGPGIGTMTQYLAEAAGKVVAVEIDRNLLPILQETLADYDNVKVIHADVLSLDLEKLVQEE | -0.000883 |
| HMELNEMEAWSLVSKALRNGTYGAVEEFSRLPPTVQEAVGNPDNLRNWATSDYKAIETVIQSNFIKTY | -0.12 |
| HMTLPELTDRELQILQLLSVGNSSQKIAKQLNISTHTVSTHRKQLLRKLGAQNGADLIRRAQKLGIL | -0.44 |
| HMSLGSQEYSIGFRNGDSTYHYIDKALKELAYEGVIDELSTQWFGSSRAVDFPSQKDALSELGYIA | -0.0308 |
| HMETAADLLAAAKENPARFGILASEGRFGLGYMNDDLLDPDNLVAISREEADDLRGLGVYFHNLD | -0.0842 |
| HMFENPRALLEMMISLGNEQGLINMARDIVSAGEFRRLELAAGGDRRKLARMLIDHLVEVAPRLP | -0.394 |
| HMSHFSERLKSLRQQSSITQAKLADDLNVTKSLISMYESGQRLPSFEMLETIADYFNVPLSSLV | -0.089 |
| HMSPPPRPSHPEAAGLRHLAFEVDNIDDAVRHLDRLGVPHEPVRTDEYTGRRFLFFTDPDRLPLELYEK | -0.0818 |

— the domain aggregation screens of Martell et al. (2025)
